# Reference: paper PMC13086950 (Nature Communications, 2026)
# B1: Full-length gephyrin, splice variant P1 (natural protein)
# chain: MAHHHHHHGGSSGGSSEFMATEGMILTNHDHQIRVGVLTVSDSCFRNLAEDRSGINLKDLVQDPSLLGGTISAYKIVPDEIEEIKETLIDWCDEKELNLILTTGGTGFAPRDVTPEATKEVIEREAPGMALAMLMGSLNVTPLGMLSRPVCGIRGKTLIINLPGSKKGSQECFQFILPALPHAIDLLRDAIVKVKEVHDELEDLPSPPPPLSPPPTTSPHKQTEDKGVQCEEEEEEKKDSGVASTEDSSSSHITAAALAAKIPDSIISRGVQVLPRDTASLSTTPSESPRAQATSRLSTASCPTPKVQSRCSSKENILRASHSAVDITKVARRHRMSPFPLTSMDKAFITVLEMTPVLGTEIINYRDGMGRVLAQDVYAKDNLPPFPASVKDGYAVRAADGPGDRFIIGESQAGEQPTQTVMPGQVMRVTTGAPIPCGADAVVQVEDTELIRESDDGTEELEVRILVQARPGQDIRPIGHDIKRGECVLAKGTHMGPSEIGLLATVGVTEVEVNKFPVVAVMSTGNELLNPEDDLLPGKIRDSNRSTLLATIQEHGYPTINLGIVGDNPDDLLNALNEGISRADVIITSGGVSMGEKDYLKQVLDIDLHAQIHFGRVFMKPGLPTTFATLDIDGVRKIIFALPGNPVSAVVTCNLFVVPALRKMQGILDPRPTIIKARLSCDVKLDPRPEYHRCILTWHHQEPLPWAQSTGNQMSSRLMSMRSANGLLMLPPKTEQYVELHKGEVVDVMVIGRL
# How the values were obtained:
# [1] = molecular target: the molecule itself; experiment: SEC-MALS; fraction A1 of GephFL, 100 μL at 1.3 mg/mL, Superose 6 Increase 10/300 GL, 20 mM HEPES pH 8.0, 150 mM NaCl, 1 mM EDTA, 5 mM β-mercaptoethanol
# [2] = molecular target: the molecule itself; experiment: SEC-MALS; fraction A2’ of GephFL, 100 μL at 1.3 mg/mL, Superose 6 Increase 10/300 GL, 20 mM HEPES pH 8.0, 150 mM NaCl, 1 mM EDTA, 5 mM β-mercaptoethanol
# [3] = molecular target: the molecule itself; experiment: SEC-MALS; fraction B1’ of GephFL, 100 μL at 1.2 mg/mL, Superose 6 Increase 10/300 GL, 20 mM HEPES pH 8.0, 150 mM NaCl, 1 mM EDTA, 5 mM β-mercaptoethanol
protein,measurement,setting,value
B1,stoichiometry N,[1],~6
same,stoichiometry N,[2],~4
same,stoichiometry N,[3],2
